We go through five molecules from patent publication US20210253718A1 (MODMAB THERAPEUTICS, published 2021).

Substitutions are numbered along the chain they refer to.

The labels stand for the following.
T1: FZD3 cysteine-rich domain (CRD), MYC-tagged and GPI-anchored on CHO cells (human, UniProt Q9NPG1 24-150, GPI anchor)
T1 construct: domain: cysteine-rich domain (CRD); also called FZD3 CRD; CHO-myc-FZDGPI; not shown: MYC tag and GPI anchor signal
T1 sequence (looked up): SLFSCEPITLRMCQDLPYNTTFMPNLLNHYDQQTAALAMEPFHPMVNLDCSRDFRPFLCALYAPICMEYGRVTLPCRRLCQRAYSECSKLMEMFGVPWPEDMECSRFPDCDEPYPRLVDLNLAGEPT

T2: FZD4 cysteine-rich domain (CRD), MYC-tagged and GPI-anchored on CHO cells (human, UniProt Q9ULV1 42-167, GPI anchor)
T2 construct: also called FZD4 CRD; CHO-myc-FZDGPI; not shown: MYC tag and GPI anchor signal
T2 sequence: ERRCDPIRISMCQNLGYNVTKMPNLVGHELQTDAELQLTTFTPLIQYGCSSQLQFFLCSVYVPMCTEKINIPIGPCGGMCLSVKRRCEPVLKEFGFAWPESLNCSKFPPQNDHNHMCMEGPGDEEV

T3: FZD5 cysteine-rich domain (CRD), MYC-tagged and GPI-anchored on CHO cells (human, UniProt Q13467 29-156, GPI anchor)
T3 construct: also called FZD5 CRD; CHO-myc-FZDGPI; not shown: MYC tag and GPI anchor signal
T3 sequence: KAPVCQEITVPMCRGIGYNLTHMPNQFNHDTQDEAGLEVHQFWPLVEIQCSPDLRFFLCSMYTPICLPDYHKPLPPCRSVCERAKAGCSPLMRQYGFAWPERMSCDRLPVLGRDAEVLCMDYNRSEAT

T4: FZD6 cysteine-rich domain (CRD), MYC-tagged and GPI-anchored on CHO cells (human, UniProt O60353 20-146, GPI anchor)
T4 construct: also called FZD6 CRD; CHO-myc-FZDGPI; not shown: MYC tag and GPI anchor signal
T4 sequence: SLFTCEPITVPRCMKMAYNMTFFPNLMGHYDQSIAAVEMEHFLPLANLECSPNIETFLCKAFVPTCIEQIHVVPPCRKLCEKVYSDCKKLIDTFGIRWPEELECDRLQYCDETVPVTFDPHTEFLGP

T5: FZD8 cysteine-rich domain (CRD), MYC-tagged and GPI-anchored on CHO cells (human, UniProt Q498S8 31-155 (rat entry), GPI anchor)
T5 construct: also called FZD8 CRD; CHO-myc-FZDGPI; not shown: MYC tag and GPI anchor signal
T5 sequence: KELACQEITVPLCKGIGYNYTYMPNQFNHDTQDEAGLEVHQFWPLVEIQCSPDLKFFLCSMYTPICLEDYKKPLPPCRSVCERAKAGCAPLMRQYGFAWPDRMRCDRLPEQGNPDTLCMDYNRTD

T6: FZD9 cysteine-rich domain (CRD), MYC-tagged and GPI-anchored on CHO cells (human, UniProt O00144 35-161, GPI anchor)
T6 construct: also called FZD9 CRD; CHO-myc-FZDGPI; not shown: MYC tag and GPI anchor signal
T6 sequence: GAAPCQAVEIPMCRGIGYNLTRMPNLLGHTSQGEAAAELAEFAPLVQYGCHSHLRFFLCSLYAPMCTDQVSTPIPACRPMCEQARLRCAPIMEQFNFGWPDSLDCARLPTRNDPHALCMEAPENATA

T7: FZD10 cysteine-rich domain (CRD), MYC-tagged and GPI-anchored on CHO cells (human, UniProt Q9ULW2 30-156, GPI anchor)
T7 construct: also called FZD10 CRD; CHO-myc-FZDGPI; not shown: MYC tag and GPI anchor signal
T7 sequence: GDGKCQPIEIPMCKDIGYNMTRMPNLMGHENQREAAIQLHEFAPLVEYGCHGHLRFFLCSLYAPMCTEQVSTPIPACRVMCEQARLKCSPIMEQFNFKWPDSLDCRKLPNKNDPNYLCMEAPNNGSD

B1: Fab-2920 (Fab, V domains shown)
VH: EVQLVESGGGLVQPGGSLRLSCAASGFNISYYYIHWVRQAPGKGLEWVASIYPSSGSTSYADSVKGRFTISADTSKNTAYLQMNSLRAEDTAVYYCARGGMDYWGQGTLVTVSS
VL: DIQMTQSPSSLSASVGDRVTITCRASQSVSSAVAWYQQKPGKAPKLLIYSASSLYSGVPSRFSGSRSGTDFTLTISSLQPEDFATYYCQQWFAGALITFGQGTKVEIK
notes: Fab
B2: Fab-2926 (Fab, V domains shown)
VH: B1 VH with S30Y, Y31S, Y32S, I34M, G56S, M101L
VL: DIQMTQSPSSLSASVGDRVTITCRASQSVSSAVAWYQQKPGKAPKLLIYSASSLYSGVPSRFSGSRSGTDFTLTISSLQPEDFATYYCQQWYHGGSLFTFGQGTKVEIK
notes: Fab; also called Fv-2926
B3: Fab-2936 (Fab, V domains shown)
VH: B1 VH with I34M, P53S, G99A, G100A
VL: B1 VL with F92Y, G94A, A95S
notes: Fab; also called Fv-2936
B4: Fab-2924 (Fab, V domains shown)
VH: B1 VH with Y32S, P53S, S54Y, S55Y, G56S, G100A, M101L
VL: B2 VL with H93S, G95H, F98I
notes: Fab; also called Fv-2924
B5: Fab-2922 (Fab, V domains shown)
VH: EVQLVESGGGLVQPGGSLRLSCAASGFNIYSSYMHWVRQAPGKGLEWVASISPYSGYTSYADSVKGRFTISADTSKNTAYLQMNSLRAEDTAVYYCARTVRGSKKPYFSGWAMDYWGQGTLVTVSS
VL: B2 VL with W91S, Y92F, H93V, G94Y, G95P, S96Y, F98I
notes: Fab; also called Fv-2922

The target of the first experiment is T8, FZD1 cysteine-rich domain (CRD), MYC-tagged and GPI-anchored on CHO cells (human). The experiment in a line: flow cytometry, CHO-CRD cells.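 Also: flow cytometry of Fab binding to CHO cells overexpressing a Frizzled CRD, with binding defined as median fluorescence over twice that of CHO cells lacking any Frizzled CRD.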 In general terms: In flow cytometry, cells or beads pass a laser one at a time.
Experimental: (§1) Binding was measured via flow cytometry analysis of CHO cells overexpressing CRD of FZD1, FZD2, FZD3, FZD4, FZD5, FZD6, FZD7, FZD8, FZD9 or FZD10. Median fluorescence values are shown.
In turn, B1 came in with a median fluorescence of 5.73.
On to B2, for which the median fluorescence stood at 7.17.
B3 showed a median fluorescence of 3.05.
Turning to B4, the median fluorescence is 6.26.
On the same count and under the same terms, to B5 belongs 4.83.

A further experiment has as its target T9, FZD2 cysteine-rich domain (CRD), MYC-tagged and GPI-anchored on CHO cells (human, UniProt Q14332 35-161). Briefly: flow cytometry, CHO-CRD cells.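 Also: flow cytometry of Fab binding to CHO cells overexpressing a Frizzled CRD, with binding defined as median fluorescence over twice that of CHO cells lacking any Frizzled CRD.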
Experimental: as §1
Regarding B1, the median fluorescence was 4.57.
With B2, the median fluorescence turned out to be 6.21.
On the same count and under the same terms, the result for B3 reads 3.52; that for B4, 6.73; that for B5, 4.78.

A further experiment deals with T1, FZD3 cysteine-rich domain (CRD), …. Briefly: flow cytometry, CHO-CRD cells.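 Also: flow cytometry of Fab binding to CHO cells overexpressing a Frizzled CRD, with binding defined as median fluorescence over twice that of CHO cells lacking any Frizzled CRD.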
Experimental: as §1
Take B1: the median fluorescence was found to be 3.75.
Consider B2, for which the median fluorescence is 4.61.
On to B3, for which the median fluorescence stood at 3.
As for B4, the median fluorescence was found to be 4.7.
Same read-out and setting: to B5 belongs 4.1.

The target in the next experiment is T2, FZD4 cysteine-rich domain (CRD), …. The experiment in a line: flow cytometry, CHO-CRD cells.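 Also: flow cytometry of Fab binding to CHO cells overexpressing a Frizzled CRD, with binding defined as median fluorescence over twice that of CHO cells lacking any Frizzled CRD.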
Experimental: as §1
Take B1: the median fluorescence stood at 4.22.
In the case of B2, the median fluorescence amounted to 6.73.
In the case of B3, the median fluorescence worked out at 3.65.
On the same count and under the same terms, to B4 belongs 6.38.

The target in the next experiment is T3, FZD5 cysteine-rich domain (CRD), …. The experiment in a line: flow cytometry, CHO-CRD cells.
Experimental: as §1
As to B1, the median fluorescence is 28.6.
Same read-out and setting: to B2 belongs 34.6; to B3, 23.5.
Still for that read-out and setting: to B4 belongs 39.2.
B5 yielded a median fluorescence of 56.2.

The target of the next experiment is T4, FZD6 cysteine-rich domain (CRD), …. The experiment in a line: flow cytometry, CHO-CRD cells.
Experimental: as §1
B1 displayed a median fluorescence of 3.02.
On the same count and under the same terms, the result for B2 reads 3.05; that for B3, 2.57; that for B4, 4.49.
The same measure, in the same setting: the result for B5 reads 3.68.

The target in the next experiment is T10, FZD7 cysteine-rich domain (CRD), MYC-tagged and GPI-anchored on CHO cells (human, UniProt O75084 45-169). Briefly: flow cytometry, CHO-CRD cells.
Experimental: as §1
For the molecule B1, the median fluorescence was 4.91.
Still for that read-out and setting: to B2 belongs 2.71.
B3 displayed a median fluorescence of 2.55.
Same read-out and setting: the result for B4 reads 6.49; that for B5, 2.62.

The target in a further experiment is T5, FZD8 cysteine-rich domain (CRD), …. Briefly: flow cytometry, CHO-CRD cells.
Experimental: as §1
Regarding B1, the median fluorescence amounted to 7.5.
Same read-out and setting: the result for B2 reads 12.9.
B3 returned a median fluorescence of 7.04.
Same read-out and setting: to B4 belongs 12.1.
Regarding B5, the median fluorescence came to 9.14.

Another experiment deals with T6, FZD9 cysteine-rich domain (CRD), …. Briefly: flow cytometry, CHO-CRD cells.
Experimental: as §1
B1: the median fluorescence stood at 2.89.
For B2, the median fluorescence came to 3.65.
On the same count and under the same terms, to B3 belongs 2.74; to B4, 4.49.
Still for that read-out and setting: the result for B5 reads 2.89.

For a further experiment, the target named is T7, FZD10 cysteine-rich domain (CRD), …. The experiment in a line: flow cytometry, CHO-CRD cells.
Experimental: as §1
The molecule B1 gave a median fluorescence of 2.94.
The same measure, in the same setting: to B2 belongs 2.92; to B3, 2.5; to B4, 4.78.
Same read-out and setting: the result for B5 reads 2.74.

A further experiment concerns the target T8, FZD1 cysteine-rich domain (CRD), …. The experiment in a line: immunofluorescence, CHO-CRD cells.
For B1, the binding result is “no binding”.
In the case of B2, the binding result is “no binding”.
In the case of B3, the binding result is reported as “no binding”.
Still for that read-out and setting: to B4 belongs “no binding”; to B5, “no binding”.

A further experiment has as its target T9, FZD2 cysteine-rich domain (CRD), …. The experiment in a line: immunofluorescence, CHO-CRD cells.
Turning to B1, the binding result is on record as “no binding”.
With B2, the binding result is given as “no binding”.
Same read-out and setting: to B3 belongs “no binding”; to B4, “no binding”; to B5, “no binding”.

Another experiment has as its target T1, FZD3 cysteine-rich domain (CRD), …. Briefly: immunofluorescence, CHO-CRD cells.
On to B1, for which the binding result is listed as “no binding”.
On the same count and under the same terms, to B2 belongs “no binding”.
Same read-out and setting: to B3 belongs “no binding”; to B4, “no binding”.
On to B5, for which the binding result is reported as “no binding”.

In a further experiment the target is T2, FZD4 cysteine-rich domain (CRD), …. Briefly: immunofluorescence, CHO-CRD cells.
As to B1, the binding result is given as “no binding”.
Same read-out and setting: the result for B2 reads “no binding”.
As to B3, the binding result is “no binding”.
As to B4, the binding result is on record as “no binding”.

For a further experiment, the target named is T4, FZD6 cysteine-rich domain (CRD), …. The experiment in a line: immunofluorescence, CHO-CRD cells.
With B1, the binding result is on record as “no binding”.
Take B2: the binding result is given as “no binding”.
Same read-out and setting: to B3 belongs “no binding”; to B4, “no binding”; to B5, “no binding”.

The target of the next experiment is T10, FZD7 cysteine-rich domain (CRD), …. Briefly: immunofluorescence, CHO-CRD cells.
On to B1, for which the binding result is given as “no binding”.
Still for that read-out and setting: to B2 belongs “no binding”; to B3, “no binding”.
As for B4, the binding result was “no binding”.
Still for that read-out and setting: the result for B5 reads “no binding”.

The next experiment deals with T6, FZD9 cysteine-rich domain (CRD), …. The experiment in a line: immunofluorescence, CHO-CRD cells.
Turning to B1, the binding result was “no binding”.
In the case of B2, the binding result is reported as “no binding”.
As to B3, the binding result is recorded as “no binding”.
Consider B4, for which the binding result is “no binding”.
Still for that read-out and setting: the result for B5 reads “no binding”.

The next experiment deals with T7, FZD10 cysteine-rich domain (CRD), …. Briefly: immunofluorescence, CHO-CRD cells.
For B1, the binding result is given as “no binding”.
Regarding B2, the binding result is “no binding”.
On the same count and under the same terms, to B3 belongs “no binding”; to B4, “no binding”; to B5, “no binding”.
